{"source": "patent US20090136450A1", "about": "“THERAPY FOR NEUROLOGICAL DISEASES” (priority 2005, published 2009)", "molecules": {"B1": {"name": "mIFNβ: mIFNβ (Serono Pharmaceutical Research Institute, Geneva), interferon beta given to EAE mice (protein, UniProt P01575 22-182, looked up)", "Interferon beta": "INYKQLQLQERTNIRKCQELLEQLNGKINLTYRADFKIPMEMTEKMQKSYTAFAIQEMLQNVFLVFRNNFSSTGWNETIVVRLLDELHQQTVFLKTVLEEKQEERLTWEMSSTALHLKSYYWRVQRYLKLMKYNSYAWMVVRAEIFRNFLIIRRLTRNFQN"}}, "system": "Experimental Autoimmune Encephalomyelitis (EAE)", "test": "chronic EAE model in C57BY6 mice, clinical score", "type": "in vivo", "conditions": "chronic EAE in C57BY6 mice (MOG/CFA + B. pertussis toxin); subcutaneous daily treatment, 20,000 U/mouse, started at onset of the disease, 28 to 30 days", "procedure": "The most widely used animal model for multiple sclerosis is Experimental Autoimmune Encephalomyelitis (EAE), based on shared histopathological and clinical features with the human disease:\nThe chronic EAE model in C57BY6 mice shares some common traits with the primary progressive (PP) or secondary progressive (SP) forms of MS. Mice are immunized in both flanks at day 0 and day 7 with 200 μg s.c. of myelin oligodendrocyte glycoprotein (MOG) in Complete Freund's Adjuvant (CFA) and followed by two injections (on day 0 and day 2) with 500 ng i.p. of B. pertussis toxin.\nGroups are composed of 10 to 13 EAE mice. Clinical scores, overall health status, body weight and mortality are recorded daily. Starting from day 7 the animals are individually examined for the presence of paralysis by means of a clinical score: 0=no sign of disease, 1=tail paralysis, 2=tail paralysis+hindlimb weakness or partial hindlimb paralysis, 3=tail paralysis+complete hindlimb paralysis, 4=tail paralysis+hindlimb paralysis+weakness or partial paralysis of forelimbs, 5=moribund or dead.\nStarting from day 10-12, most animals are becoming increasingly paralysed.\nTherapeutic treatments are started at the onset of the disease, thus once the disease is already established but still progressing and continued for 28 to 30 days. […]"}
{"molecule": "B1", "values": [{"measurement": "clinical output (severity of the disease, paralysis clinical score)", "result": "significantly reducing the severity of the disease from complete hindlimb to partial hindlimb paralysis"}]}
